T1: Transglutaminase-2 (TG-2), mutant Cys277Ser (UniProt P21980 1-687, Cys277Ser)
T1 construct: transglutaminase-2, UniProtKB P21980; source: bought: Zedira, T018
T1 sequence (looked up): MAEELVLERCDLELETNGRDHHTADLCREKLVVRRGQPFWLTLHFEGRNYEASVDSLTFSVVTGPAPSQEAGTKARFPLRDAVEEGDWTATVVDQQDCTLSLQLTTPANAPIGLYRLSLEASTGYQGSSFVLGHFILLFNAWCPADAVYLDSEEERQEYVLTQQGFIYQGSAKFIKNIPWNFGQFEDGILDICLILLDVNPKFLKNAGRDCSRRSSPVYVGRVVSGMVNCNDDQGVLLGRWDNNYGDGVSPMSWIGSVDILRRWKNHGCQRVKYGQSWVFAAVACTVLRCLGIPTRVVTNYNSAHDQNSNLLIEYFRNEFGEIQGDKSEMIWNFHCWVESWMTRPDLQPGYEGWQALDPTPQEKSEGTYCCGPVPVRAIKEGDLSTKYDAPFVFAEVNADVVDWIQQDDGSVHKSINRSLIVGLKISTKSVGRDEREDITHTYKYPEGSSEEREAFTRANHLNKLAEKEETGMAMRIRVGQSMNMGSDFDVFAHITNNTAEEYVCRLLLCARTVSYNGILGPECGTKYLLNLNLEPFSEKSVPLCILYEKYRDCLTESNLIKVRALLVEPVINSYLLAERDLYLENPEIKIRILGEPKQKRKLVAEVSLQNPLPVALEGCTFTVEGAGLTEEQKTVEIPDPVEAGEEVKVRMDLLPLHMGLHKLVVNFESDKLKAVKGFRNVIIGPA

T2: Collagen VI (vWF1 domain) (UniProt P12109 20-256)
T2 construct: collagen alpha-1(VI) chain, UniProtKB P12109, residues 20-256 (vWF1 domain); also called Collagen VI alpha 1 chain (vWF1 domain); source: Expressed in the laboratory (PMID 24117177)
T2 sequence (looked up): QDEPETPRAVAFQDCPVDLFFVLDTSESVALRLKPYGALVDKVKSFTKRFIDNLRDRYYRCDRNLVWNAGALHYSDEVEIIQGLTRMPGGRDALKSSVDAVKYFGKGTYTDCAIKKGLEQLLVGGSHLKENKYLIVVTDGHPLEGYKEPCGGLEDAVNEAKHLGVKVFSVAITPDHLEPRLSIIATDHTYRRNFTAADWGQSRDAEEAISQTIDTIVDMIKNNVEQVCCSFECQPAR

T3: Dermatopontin (UniProt Q07507 19-201)
T3 construct: dermatopontin, UniProtKB Q07507; source: bought: Abcam, ab158310
T3 sequence (looked up): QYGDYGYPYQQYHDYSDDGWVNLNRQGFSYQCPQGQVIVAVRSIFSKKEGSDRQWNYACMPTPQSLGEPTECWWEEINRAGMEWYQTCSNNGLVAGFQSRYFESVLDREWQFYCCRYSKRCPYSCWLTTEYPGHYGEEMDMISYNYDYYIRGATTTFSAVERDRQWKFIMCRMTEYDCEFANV

T4: Matrix metalloproteinase-2 (MMP-2) (UniProt P08253 30-660)
T4 construct: matrix metalloproteinase-2, UniProtKB P08253, residues 30-660; source: bought: R&D Systems, 902-MPN
T4 sequence (looked up): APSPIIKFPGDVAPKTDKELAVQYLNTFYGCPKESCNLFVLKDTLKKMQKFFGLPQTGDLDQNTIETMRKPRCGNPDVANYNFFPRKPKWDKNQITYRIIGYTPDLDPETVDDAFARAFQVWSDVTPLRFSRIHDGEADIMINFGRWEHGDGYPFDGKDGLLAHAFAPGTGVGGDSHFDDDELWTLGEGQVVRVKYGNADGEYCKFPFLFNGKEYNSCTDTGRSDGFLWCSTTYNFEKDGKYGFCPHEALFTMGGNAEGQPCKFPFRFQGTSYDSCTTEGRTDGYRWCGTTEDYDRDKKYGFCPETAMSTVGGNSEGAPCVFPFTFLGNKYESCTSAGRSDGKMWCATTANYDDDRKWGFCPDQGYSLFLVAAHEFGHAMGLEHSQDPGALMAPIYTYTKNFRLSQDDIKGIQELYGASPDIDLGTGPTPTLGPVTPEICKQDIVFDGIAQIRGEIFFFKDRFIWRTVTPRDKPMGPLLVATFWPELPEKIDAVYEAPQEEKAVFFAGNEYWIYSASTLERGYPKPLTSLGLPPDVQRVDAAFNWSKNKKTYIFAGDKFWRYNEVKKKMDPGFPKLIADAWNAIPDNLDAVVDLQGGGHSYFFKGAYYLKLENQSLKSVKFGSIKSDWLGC

T5: Lysyl oxidase homolog 2 (LOXL2) (UniProt Q9Y4K0 26-774)
T5 construct: lysyl oxidase homolog 2, UniProtKB Q9Y4K0; also called lysyl oxidase-like 2; source: bought: R&D Systems, 2639-AO
T5 sequence (looked up): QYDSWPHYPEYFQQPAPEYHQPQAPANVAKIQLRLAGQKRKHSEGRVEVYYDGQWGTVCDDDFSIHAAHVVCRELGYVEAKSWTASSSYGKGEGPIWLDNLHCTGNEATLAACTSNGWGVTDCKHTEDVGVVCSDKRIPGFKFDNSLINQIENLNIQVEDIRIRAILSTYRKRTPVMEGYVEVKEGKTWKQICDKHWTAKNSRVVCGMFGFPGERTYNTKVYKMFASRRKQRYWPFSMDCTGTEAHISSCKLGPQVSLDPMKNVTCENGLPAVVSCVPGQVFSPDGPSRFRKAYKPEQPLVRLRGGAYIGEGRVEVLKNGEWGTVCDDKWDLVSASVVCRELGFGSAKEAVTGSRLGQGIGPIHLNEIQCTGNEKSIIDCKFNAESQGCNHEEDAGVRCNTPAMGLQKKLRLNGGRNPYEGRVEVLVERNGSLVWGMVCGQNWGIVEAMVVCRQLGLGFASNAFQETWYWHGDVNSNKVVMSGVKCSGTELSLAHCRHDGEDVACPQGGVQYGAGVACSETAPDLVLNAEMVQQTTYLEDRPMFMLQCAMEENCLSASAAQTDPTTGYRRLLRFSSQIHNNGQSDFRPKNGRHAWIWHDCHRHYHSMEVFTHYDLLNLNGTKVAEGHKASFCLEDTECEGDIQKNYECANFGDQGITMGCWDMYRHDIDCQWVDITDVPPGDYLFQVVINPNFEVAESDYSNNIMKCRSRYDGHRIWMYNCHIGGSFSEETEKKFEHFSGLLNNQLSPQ

T6: Fibromodulin (UniProt P13605 19-376)
T6 construct: proteoglycan; source: bought: Sigma-Aldrich, F6921
T6 sequence (looked up): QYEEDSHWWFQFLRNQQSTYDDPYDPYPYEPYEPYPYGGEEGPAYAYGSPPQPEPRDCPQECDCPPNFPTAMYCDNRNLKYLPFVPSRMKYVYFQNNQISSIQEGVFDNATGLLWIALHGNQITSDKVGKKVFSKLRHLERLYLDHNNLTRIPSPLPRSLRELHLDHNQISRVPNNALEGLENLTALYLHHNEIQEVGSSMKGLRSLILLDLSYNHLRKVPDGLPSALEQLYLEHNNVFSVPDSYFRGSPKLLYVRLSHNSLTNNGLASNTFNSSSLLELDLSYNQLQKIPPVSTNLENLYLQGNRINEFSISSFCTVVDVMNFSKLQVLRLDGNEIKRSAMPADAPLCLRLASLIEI

B1: Lysyl oxidase propeptide (LOX-PP) (Pro24Leu) (domain or fragment, human, UniProt P28300 22-168, looked up)
chain: APLAAGQQQPPREPPAAPGAWRQQIQWENNGQVFSLLSLGSQYQPQRRRDPGAAVPGAANASAQQPRTPILLIRDNRTAAARTRTAGSSGVTAGRPRPTARHWFQAGYSTSRAREAGASRAENQTAPGEVPALSNLRPPSRVDGMVG
modifications: N-linked glycans (removed by PNGase F)
notes: propeptide of human lysyl oxidase, UniProtKB P28300, residues 22-168; expressed from the pCEP-Pu-BM40 vector; also called propeptide of human lysyl oxidase; source: HEK293-EBNA, purified (anti-FLAG resin)

Experiments:
Assay in all cases: SPR; SPR imaging (SPRi, Biacore Flexchip): partners spotted in triplicate on a bare gold chip at 0.06 to 1 mg/ml; purified LOX-PP injected at 2 µM and recirculated for 20 min; PBS with 0.05% Tween 20, 25 °C
Settings in all cases: both partners purified
[1] = target: B1
[2] = target: T1, Transglutaminase-2 (TG-2), mutant …
[3] = target: T2, Collagen VI (vWF1 domain)
Dermatopontin = target: T3, Dermatopontin
[4] = target: T4, Matrix metalloproteinase-2 (MMP-2)
[5] = target: T5, Lysyl oxidase homolog 2 (LOXL2)
Fibromodulin = target: T6, Fibromodulin

binding result [1]	binding result [2]	binding result [3]	binding result (Dermatopontin)	binding result [4]	binding result [5]	binding result (Fibromodulin)	Binder
binds	–	–	–	–	–	–	Fibronectin fragment III1-C (anastellin) (domain or fragment, anastellin, fragment III1-C of fibronectin, UniProtKB P02751, residues 631-702; source: bought: Sigma-Aldrich, F3542) not shown
binds	–	–	–	–	–	–	Epidermal growth factor (EGF) (ligand, UniProt P01133 971-1023, looked up, epidermal growth factor, feature PRO_0000007541 of pro-epidermal growth factor, UniProtKB P01133; source: bought: Sigma-Aldrich, E9644) NSDSECPLSHDGYCLHDGVCMYIEALDKYACNCVVGYIGERCQYRDLKWWELR
–	binds	binds	binds	binds	binds	binds	B1

From paper PMC6078952, “Insights into the structure and dynamics of lysyl oxidase propeptide, a flexible protein with numerous partners” (Scientific Reports, 2018)
